Assay [1] relates to mouse bleomycin-induced lung fibrosis model. The assay is described as follows: Mouse bleomycin-induced lung fibrosis model. The format is in vivo. As for the experimental part:
Fibrosis of the lung represents an additional significant form of fibrotic disease with significant health impacts in humans. To evaluate if the anti-fibrotic effects of GAL3-TIM3 blockade extend into the setting of lung fibrosis, a mouse bleomycin-induced lung fibrosis model was evaluated for sensitivity to mIMT001. Briefly, C57Blck/6 male mice were injected intra-tracheally with 30 ug of Bleomycin Sulfate (MP biomedicals, cat #190306) reconstituted in 50 ul of PBS. Mice were treated on day 18, 20, 22, and 24 with mIgG2b isotype control, anti-GAL3 antibody (mIMT001) (10 mg/kg) by tail vein injection, or small molecule TD139 (Med Chem Express, cat #HY-19940) at 10 uM in 50 ul of Captisol (Med Chem Express, cat #HY-17031) injected intra-tracheally. Mice were sacrificed on day 27 and lungs were surgically dissected and fixed in 4% paraformaldehyde for 24 hours, exchanged into 70% ethanol, and embedded in paraffin. Lung fibrosis in fixed specimens was evaluated by Masson's trichrome staining kit (26367) from Electron Microscopy Sciences (Hatfield, Pa.). […] lung sections were affixed to glass slides, After deparaffinization, rehydration in serial ethanol baths. Staining was performed by incubating in Bouin's fixative for 1 h at 56 degree, staining with Briebrich Scarlet/acid fuchsin, Phosphomolybdic Acid-Phosphotungstic Acid and Aniline Blue, then differentiated in acetic acid, prior to their dehydration, clearing and mounting.

Another assay concerns a-SMA and fibronectin. Nature of the assay: N-IF mouse liver fibrosis, western blot of fibrosis markers. The format is in vivo. Particulars: 10 mg/kg every fourth day for 40 days, vs mIgG2b. Here is the method: N-IF mice were generated by crossing 24αβNOD mice and NOD.Rag2−/− mouse strains. The N-IF mice were backcrossed with the B6.Rag2−/− mouse strains for 10 generations. Mice (male and female) were separated into two groups: IMT001 antibody treatment group and mIgG2b antibody control group. Antibodies were administered to the animals every fourth day for 40 days, at 10 mg/kg body weight and the animals were subsequently sacrificed. All efforts were made to minimize suffering. Liver and Kidney tissues were collected and snap frozen in liquid nitrogen for western blot analysis. Tissue processing and western blot analysis were performed as in Example 19. GAPDH was used a loading control reference.
In general terms: In western blotting, separated proteins are transferred to a membrane and probed.

In the next assay the test system is B16F10 cells. Nature of the assay: Immune profiling in B16F10 lung metastasis mice. Particulars: 10 mg/kg I.P., day 8, vs isotype control. The format is in vivo, mouse. As for the experimental part: Mice were implanted with 1 million B16F10 cells I.V. Mice were then treated with IMT001 or isotype control (10 mg/kg I.P.) on Day 0, 1, 3 and 7 and sacrificed on day 8 for lung immune cell isolation and phenotyping. Cells were isolated from the lungs, and then stained with fluorescently labeled antibodies against lymphocyte markers CD3, CD4, CD8, CD19, DX5 and analyzed by flow cytometry.

The subject of assay [2] is Human peripheral blood mononuclear cells (PBMCs). Nature of the assay: CMV antigen recall assay, IFN gamma. The class given is cell-based. Particulars: 10 ug/ml final, CMV 4 days, vs isotype control. As for the experimental part:
To assess the ability of Gal3-targeted antibodies with Gal3-TIM-3 blocking activity to enhance T-cell mediated responses, a CMV antigen recall assay was used. Human peripheral blood mononuclear cells (PBMCs) (Astarte, donor ID 230) were quickly thawed in 37 C water bath, resuspended in 20 ml of RPMI media with 10% FBS, and centrifuged at 1500 RPM for 5 min. Media was discarded pellet resuspended in 20 ml media and counted by […], and diluted to a final concentration of 4 million/ml in Serum free Media (Lonza). 50 ul of media plus cells (200,000 cells/well) were added to 60 inner wells of a 96 well round bottom plate, and incubated at 37 C for 30 min. Antibodies were added to serum free media to a stock concentration of 4× the final concentration (40 ug/ml). 50 ul of antibodies at 4× concentration were added directly to the PBMCS and incubated at 37 C for 30 min. After PBMCs were incubated with antibodies for 30 min, 100 ul of CMV (Astarte Biologics, Cat. #1004) at 2× concentration (1 ug/ml) directly to the cells and incubated for 4 days at 37 C. On Day 4, 10 ul of cell supernatant were collected to measure human IFN gamma concentration by ELISA via a human IFN-gamma ELISA kit (Invitrogen).

In a further assay the test system is hGal3 peptides. Nature of the assay: ELISA of antibody binding to hGal3 peptides (Example 14). Conditions: 0.1 ug/ml antibody. Details: species or system human. As for the experimental part: A library of 20 amino acid peptides each representing a certain regions of hGal3 (SEQ ID NO: 1) was produced. At least 2 ug/ml of the produced hGal3 peptide: peptide 1 (SEQ ID NO: 3), 5 (SEQ ID NO: 7), 6 (SEQ ID NO: 8), 8 (SEQ ID NO: 10), or 23 (SEQ ID NO: 25) in 50 ul of PBS was added to the wells of a 96-well ELISA plate (Thermo Fisher, 44-2404-21). As a positive control, 0.1 ug/ml of full-length human Galectin-3 protein (Acro Biosystems, GA3-H5129) in 100 ul of PBS was added to the wells of the ELISA plate. After incubating the plate at 4° C. overnight, the plate was washed three times with 300 ul of PBST per well. The plate was then blocked for an hour with 200 ul of 2% BSA in PBST per well at room temperature with gentle rocking. Thereafter, the 2% BSA in PBST was removed and 100 ul of 0.1 ug/ml of antibody in 2% BSA in PBST was added to the wells (FIG. 17A-B). As for negative control group, the antibodies were applied without the hGal3 peptides or the hGal3 protein.
The plate was incubated for an hour at room temperature with gentle rocking and then washed three times with 300 μl of PBST per well. […] The reaction was stopped with 50 ul of 1M HCl (VWR) per well and the plate was read using a plate reader (Molecular Devices) at absorbance of 450 nm.
(In an ELISA, binding on a coated surface is turned into a signal by an enzyme label.)

For another assay, the system named is Renca cells. The assay is described as follows: Primary mouse Renca renal tumor model. The class given is in vivo. Particulars: vs isotype control. Here is the method:
On the day of tumor implantation, mice were anesthetized by inhalation anesthetic (3 to 5% Isoflurane in medical grade air), Renca cells were washed and resuspended in PBS before subcutaneously injecting 2×10^5 cells in 0.1 mL, PBS using a syringe with a 25-ga needle. […] The animals were humanely sacrificed when tumor volume in the control group reached between 2000-2500 mm^3. Results were expressed as mean±SEM. The statistical analysis was performed in comparison with IgG2b control group using unpaired t test.

B1: IMT001: anti-Gal3 monoclonal antibody (Immutics); printed as mIMT001 (IMT001), murine (antibody, V domains shown)
VH: QIQLVQSGPELKKPGETVKISCKASGYTFTNYGMNWVKQAPGKGLKWMGWINTNTGEPTYVEEFKGRFAFSLETSASTAYLQINNLKNEDTATYFCAPYDNFFAYWGQGTLVTVSA
VL: DIVITQDELSNPVTSGESVSISCRSSKSLLYKDGKTYLNWFLQRPGQSPQLLIYLMSTHASGVSDRFSGSGSGTDFTLEISRVKAEDVGVYYCQQLVDYPLTFGAGTKLELK
For the molecule B1, the Ashcroft score in assay [1] (10 mg/kg tail vein day 18, 20, 22, 24, isotype 5.74) was determined as 4.09. In assay [1] (vs isotype control), the “decrement in fibrotic injury” value was found to be 29% and the “lung fibrosis, Masson's trichrome” value is on record as “substantially reduced”. Moreover, the “expression of fibrotic markers a-SMA and fibronectin in liver” value in the assay on a-SMA and fibronectin is recorded as “significant reductions”. The “number of immune effector cells in lungs (CD3, CD4, CD8, CD19, DX5)” value in the assay on B16F10 cells is “increased the number of various immune effector cell”. Besides, in assay [2], the interferon-gamma secretion entry is recorded as “significantly increased levels”. For the same molecule, the hGal3 peptides bound in the assay with hGal3 peptides is 5 (SEQ ID NO: 7), 6 (SEQ ID NO: 8), and 8 (SEQ ID NO: 10). Further, the “reduction of tumor growth” value in the assay with Renca cells (10 mg/Kg i.p.) is reported as “about 35%”. In addition, the “effect on tumor size” value with Renca cells is reported as “much reduced tumor size”.

(Values after US20220380473A1, “ANTI-GAL3 ANTIBODIES AND USES THEREOF” (TrueBinding, Inc., priority 2019, published 2022).)
